Experimental data from US20250282868A1 (ITEOS BELGIUM, published 2025).

T1: human TREM2 (human, UniProt Q9NZC2 19-230)
T1 sequence: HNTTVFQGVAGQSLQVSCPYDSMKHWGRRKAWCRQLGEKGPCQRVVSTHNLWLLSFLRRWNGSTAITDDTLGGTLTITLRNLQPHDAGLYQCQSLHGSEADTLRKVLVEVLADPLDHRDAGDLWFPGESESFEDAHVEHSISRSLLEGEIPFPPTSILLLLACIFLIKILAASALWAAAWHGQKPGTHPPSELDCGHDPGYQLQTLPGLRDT

T2: cynomolgus TREM2 (cynomolgus, UniProt A0A2K5UY34 49-260)
T2 construct: also called cynoTREM2; cTREM2
T2 sequence: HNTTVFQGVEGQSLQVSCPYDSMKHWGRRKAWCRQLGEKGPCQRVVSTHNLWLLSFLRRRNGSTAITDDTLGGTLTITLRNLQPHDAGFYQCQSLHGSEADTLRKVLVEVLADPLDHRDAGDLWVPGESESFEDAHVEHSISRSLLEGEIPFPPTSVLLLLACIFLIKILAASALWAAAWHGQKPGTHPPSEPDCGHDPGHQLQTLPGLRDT

T3: mouse TREM2 (mouse, UniProt Q99NH8 19-227)
T3 construct: whole, on cells
T3 sequence (looked up): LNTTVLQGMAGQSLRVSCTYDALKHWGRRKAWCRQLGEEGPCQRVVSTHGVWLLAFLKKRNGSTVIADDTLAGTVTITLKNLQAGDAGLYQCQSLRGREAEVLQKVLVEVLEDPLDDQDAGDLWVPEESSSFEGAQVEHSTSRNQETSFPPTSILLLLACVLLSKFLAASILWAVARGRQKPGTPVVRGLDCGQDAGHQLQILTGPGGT


How the values were obtained:
human TREM2 [1] = target: T1, human TREM2; test: cell-based or functional assay
human TREM2 [2] = target: T1, human TREM2; test: flow cytometry, competition with LDL-Alexafluor-488 on CHO cells overexpressing human TREM2/DAP12
Protocol: Exemplary anti-TREM2 antibodies were tested in order to characterize their ability to enter in competition with TREM2 ligand, LDL, on CHO overexpressing human TREM2/DAP12. Antibodies (dose response curves from 66.65 nM to 0.07 nM) were incubated for 30 min with cells in a soluble fashion, followed by an incubation with LDL coupled with Alexafluor-488 (at 1 μg/mL final) for 30 min. Finally, after 2 washes, cells were acquired on flow cytometer. The median MFI of Alexafluor-488 was used to plot the graphs. Benchmark antibody MOR044746 was used as positive control.

cynomolgus TREM2 [3] = target: T2, cynomolgus TREM2; test: MFI on CHO cells over-expressing cynoTREM2-DAP12 vs CHO empty vector
Protocol: (§1) Cross-reactivity of anti-TREM2 antibodies to cynomolgus TREM2 (cynoTREM2) was assessed using CHO over-expressing cynoTREM2-DAP12 (Table 22). Benchmark antibodies, AB52 and PN-37012, were examined for comparison.

human TREM2 [4] = target: T1, human TREM2; test: flow cytometry, THP-1 WT vs THP-1 TREM2 KO cells, 10 ug/ml
Protocol: (§2) In order to test specificity of selected antibodies to TREM2, binding was tested by flow cytometry on THP-1 TREM2 KO (clone, produced using CRISPR technology in house) and on THP-1 WT. Cells were incubated with selected anti-TREM2 antibodies (final concentration of 10 μg/ml) for 30 min at 4° C. After washing, bound antibodies were detected with a secondary anti-human IgG Fc PE-labelled for 30 min at 4° C. Fluorescence intensity was measured by flow cytometry.

human TREM2 [5] = target: T1, human TREM2; test: cell-based or functional assay; remark: listed apart in the source
cynomolgus TREM2 [6] = target: T2, cynomolgus TREM2; test: MFI on CHO cells over-expressing cynoTREM2-DAP12
Protocol: as §1

human TREM2 [7] = target: T1, human TREM2; test: flow cytometry, THP-1 WT cells, 10 ug/ml
Protocol: as §2

human TREM2 [8] = target: T1, human TREM2; test: flow cytometry, M2a-like macrophages
Protocol: (§3) M2a-like macrophages were produced in vitro from monocytes of healthy donors. Briefly, after PBMCs isolation from peripheral blood using Lymphoprep™ gradient, CD14+ cells were purified and seeded in presence of MCSF 50 ng/ml for 6 days. Macrophages were then cultured with IL-13 and IL-4 at a concentration of 20 ng/ml for two additional days and then used for a cell-based binding assay.
(§4) M2a-like macrophages were incubated with anti-TREM2 antibodies (dose-response curve with 11 concentrations from 10 μg/ml to 0.0001 μg/ml) for 30 min at 4° C. After washing, bound antibodies were detected with a secondary anti-human IgG Fc PE-labelled for 30 min at 4° C. Fluorescence intensity was measured by flow cytometry. Equilibrium dissociation constant (kD) was then calculated for each antibody using median MFI normalized over isotype control.

human TREM2 [9] = target: T1, human TREM2; test: flow cytometry, M2a-like macrophages, dose-response
Protocol: as §3, §4

mouse TREM2 [10] = target: T3, mouse TREM2; test: MFI on CT26 cells over-expressing mouse TREM2 and DAP12 vs CT26 empty vector
Protocol: (§5) Cross-reactivity to mouse TREM2 was assessed using CT26 cells over-expressing mouse TREM2 and DAP12 (Table 23). Eight anti-TREM2 antibodies and both benchmark antibodies were considered cross-reactive to mouse TREM2 (MFI higher than isotype control and fold change of CT26-TREM2 over the CT26 Empty Vector higher than 5). The remaining anti-TREM2 antibodies were considered as being low to not cross-reactive (fold change less than 5). EOS006171 was not tested due to clear non-cross-reactivity preliminary data by octet (data not shown).

mouse TREM2 [11] = target: T3, mouse TREM2; test: MFI on CT26 cells over-expressing mouse TREM2 and DAP12
Protocol: as §5

Binder	Stabilization ratio (Mean of 2 replicates) (human TREM2 [1]) [ratio]	IC50 (human TREM2 [2]) [pM]	MFI Fold change (CHO-cTREM2 over CHO-EV) (cynomolgus TREM2 [3]) [fold]	MFI Fold change (THP-1 WT over THP-1 TREM2 KO) (human TREM2 [4]) [fold]	Fold over isotype control at 66 nM (human TREM2 [5]) [fold]	Binding to CHO-cTREM2 MFI (cynomolgus TREM2 [6]) [MFI]	Fold over isotype control THP1 WT (human TREM2 [7]) [fold]	Fold over isotype (human TREM2 [8]) [fold]	Kd (human TREM2 [9]) [pM]	pSYK/TotSYK EC50 (nM) (human TREM2 [5])	MFI Fold change (CT26-TREM2 over CT26-EV) (mouse TREM2 [10]) [fold]	Binding to CT26-TREM2 MFI (mouse TREM2 [11]) [MFI]
EOS006163 (antibody, V domains shown) VH: QVQLVQSGAEVKKPGSSVKVSCKASGGTFAQYAISWVRQAPGQGLEWMGVIIPDSGTANYAQKFQGRVTITADESTSTAYMELSSLRSEDTAVYYCARTQENTIFDIWGQGTMVTVSS VL: EIVLTQSPATLSLSPGERATLSCRASQSVSSYLAWFQQKPGQAPRLLIYDASNRATGIPARFSGSGSGTDFTLTISSLEPEDFAVYYCQQDYEWPITFGGGTKVEIK	0.42	169	395	5.1	0.701	17700	2.7	13	150	–	–	–
EOS006171 (antibody, V domains shown) VH: QVQLVESGGGLVKPGGSLRLSCAASGFTFSDYYMSWIRQAPGKGLEWVSYISSSGSTIYYADSVKGRFTISRDNAKNSLYLQMNSLRAEDTAVYYCARLGGYYSLGPMDVWGQGTTVTVSS VL: EIVLTQSPATLSLSPGERATLSCRASQSVSSYLAWYQQKPGQAPRLLIYDASNRATGIPARFSGSGSGTDFTLTISSLEPEDFAVYYCQQDSAFPFTFGGGTKVEIK	0.46	–	495	4.3	2.4	13400	6.6	–	2800	9.7	–	–
EOS006181 (antibody, V domains shown) VH: EVQLVESGGGLVQPGRSLRLSCTASGFTFDDHAMSWFRQAPGKGLEWVGFIGSKAYGGTTEYTASVKGRFTISRDGSKSIAYLQMNSLKTEDTAVYYCARGKRYSYTYWTPAFDVWGQGTMVTVSS VL: DIQMTQSPSSLSASVGDRVTITCQASQDITNYLNWYQQKPGKAPKLLIYDASNLETGVPSRFSGSGSGTDFTFTISSLQPEDIATYYCQQYDSYLTFGGGTKVEIK	0.69	280	251	4.8	2.84	11900	3.5	9.3	–	1.09	17.4	4690
EOS006176 (antibody, V domains shown) VH: EVQLLESGGGLVQPGGSLRLSCAASGFTFSTHAMTWVRQAPGKGLEWVSAISANAGKTYYADSVKGRFTISRDNSKNTLYLQMNSLRAEDTAVYYCASLRGGYEVGPTFDSWGQGTLVTVSS VL: not shown	0.6	–	388	3.4	2.65	20400	2.7	13.1	–	4.05	15	6340
EOS006178 (antibody, V domains shown) VH: EVQLLESGGGLVQPGGSLRLSCAASGFTFSNYGMGWVRQAPGKGLEWVSAISANAGKTYYADSVKGRFTISRDNSKNTLYLQMNSLRAEDTAVYYCASLRGGYEVGPTFDPWGQGTLVTVSS VL: not shown	0.64	–	334	2.4	2.51	19700	2.1	5.4	–	3.89	15.8	6790
14D3 (antibody, V domains shown) VH: EVKLLEFGGGLVQPGGSMRLSCAASGFTFTDFYMNWIRQPAGRAPEWLGLIRNKTKGYTTEYNRSVKGRFTISRDNTQNMLYLQMNSLRPEDTATYYCARIGVNNGGSLDYWGQGVMVTVSS VL: DILIIQSPASLTVSAGARVTMSCKSSQSLLYSENNQDYLAWYQQKPGQFPKLLIYGASNRHTGVPDRFTGSGSGTDFTLTISSVQAEDLADYYCEQTYSYPYTFGAGTKLELK	0.96	–	–	–	–	–	–	–	–	–	–	–
6E7 (antibody, V domains shown) VH: EVQLVQSGAEVKKPGESLKISCKGSGYSFTSYWIAWVRQMPGKGLEWMGIIYPGDSDTRYSPSFQGQVTISADKSISTAYLQWSSLKASDTAMYFCARQRTFYYDSSDYFDYWGQGTLVTVSS VL: DIQMTQSPSSVSASVGDRVTITCRASQGISSWLAWYQQKPGKAPKLLIYAASSLQNGVPSRFSGSGSGTDFTLTISSLQPEDFATYFCQQADSFPRTFGQGTKLEIK	–	–	–	–	1.93	–	–	–	–	1.29	–	–
Ab52 (antibody, V domains shown, benchmark anti-TREM2 antibody from WO2016023019A2) VH: QVQLVQSGAEVKKPGASVKVSCKASGYTFTSYYIHWVRQAPGQGLEWMGIINPSGGSTSYAQKFQGRVTMTRDTSTSTVYMELSSLRSEDTAVYYCAREADDSSGYPLGLDVWGQGTMVTVSS VL: EIVMTQSPATLSVSPGERATLSCRASQSVSSNLAWYQQKPGQAPRLLIYGASTRATGIPARFSGSGSGTEFTLTISSLQSEDFAVYYCQQVNSLPPTFGGGTKVEIK	–	–	602	–	–	25500	–	–	–	–	33.6	8810
PN-37012 (antibody, V domains shown, benchmark anti-TREM2 antibody from US20190309064) VH: EVQLLESGGGLVQPGGSLRLSCAASGFTFSNYYMAWVRQAPGKGLEWVSSLTNSGGSTYYADSVKGRFTISRDNSKNTLYLQMNSLRAEDTAVYYCTREWAGSGYFDYWGQGTLVTVSS VL: DIQMTQSPSSLSASVGDRVTITCKASQNVGNNLAWYQQKPGKAPKLLIYYTSNRFTGVPSRFSGSGSGTDFTLTISSLQPEDFATYYCQRIYNSPWTFGQGTKLEIK	–	–	–	–	–	–	–	–	–	–	21	6750
